Measured values taken from patent US20160113911A1, “METHODS AND COMPOSITIONS FOR THE TREATMENT OF CANCER” (THE GENERAL HOSPITAL CORPORATION, priority 2013, published 2016).
Substitutions are numbered along the chain they refer to. Names may count otherwise.

B1: 2A-R152W*: KDM4A mutation (protein, UniProt O75164 2-1064, looked up, variant R152W)
Lysine-specific demethylase 4A: ASESETLNPSARIMTFYPTMEEFRNFSRYIAYIESQGAHRAGLAKVVPPKEWKPRASYDDIDDLVIPAPIQQLVTGQSGLFTQYNIQKKAMTVREFRKIANSDKYCTPRYSEFEELERKYWKNLTFNPPIYGADVNGTLYEKHVDEWNIGWLRTILDLVEKESGITIEGVNTPYLYFGMWKTSFAWHTEDMDLYSINYLHFGEPKSWYSVPPEHGKRLERLAKGFFPGSAQSCEAFLRHKMTLISPLMLKKYGIPFDKVTQEAGEFMITFPYGYHAGFNHGFNCAESTNFATRRWIEYGKQAVLCSCRKDMVKISMDVFVRKFQPERYKLWKAGKDNTVIDHTLPTPEAAEFLKESELPPRAGNEEECPEEDMEGVEDGEEGDLKTSLAKHRIGTKRHRVCLEIPQEVSQSELFPKEDLSSEQYEMTECPAALAPVRPTHSSVRQVEDGLTFPDYSDSTEVKFEELKNVKLEEEDEEEEQAAAALDLSVNPASVGGRLVFSGSKKKSSSSLGSGSSRDSISSDSETSEPLSCRAQGQTGVLTVHSYAKGDGRVTVGEPCTRKKGSAARSFSERELAEVADEYMFSLEENKKSKGRRQPLSKLPRHHPLVLQECVSDDETSEQLTPEEEAEETEAWAKPLSQLWQNRPPNFEAEKEFNETMAQQAPHCAVCMIFQTYHQVEFGGFNQNCGNASDLAPQKQRTKPLIPEMCFTSTGCSTDINLSTPYLEEDGTSILVSCKKCSVRVHASCYGVPPAKASEDWMCSRCSANALEEDCCLCSLRGGALQRANDDRWVHVSCAVAILEARFVNIAERSPVDVSKIPLPRFKLKCIFCKKRRKRTAGCCVQCSHGRCPTAFHVSCAQAAGVMMQPDDWPFVVFITCFRHKIPNLERAKGALQSITAGQKVISKHKNGRFYQCEVVRLTTETFYEVNFDDGSFSDNLYPEDIVSQDCLQFGPPAEGEVVQVRWTDGQVYGAKFVASHPIQMYQVEFEDGSQLVVKRDDVYTLDEELPKRVKSRLSVASDMRFNEIFTEKEVKQEKKRQRVINSRYREDYIEPALYRAIME
B2: 2A-I87V: KDM4A mutation (protein)
chain: MASESETLNPSARIMTFYPTMEEFRNFSRYIAYIESQGAHRAGLAKVVPPKEWKPRASYDDIDDLVIPAPIQQLVTGQSGLFTQYNVQKKAMTVREFRKIANSDKYCTPRYSEFEELERKYWKNLTFNPPIYGADVNGTLYEKHVDEWNIGRLRTILDLVEKESGITIEGVNTPYLYFGMWKTSFAWHTEDMDLYSINYLHFGEPKSWYSVPPEHGKRLERLAKGFFPGSAQSCEAFLRHKMTLISPLMLKKYGIPFDKVTQEAGEFMITFPYGYHAGFNHGFNCAESTNFATRRWIEYGKQAVLCSCRKDMVKISMDVFVRKFQPERYKLWKAGKDNTVIDHTLPTPEAAEFLKESELPPRAGNEEECPEEDMEGVEDGEEGDLKTSLAKHRIGTKRHRVCLEIPQEVSQSELFPKEDLSSEQYEMTECPAALAPVRPTHSSVRQVEDGLTFPDYSDSTEVKFEELKNVKLEEEDEEEEQAAAALDLSVNPASVGGRLVFSGSKKKSSSSLGSGSSRDSISSDSETSEPLSCRAQGQTGVLTVHSYAKGDGRVTVGEPCTRKKGSAARSFSERELAEVADEYMFSLEENKKSKGRRQPLSKLPRHHPLVLQECVSDDETSEQLTPEEEAEETEAWAKPLSQLWQNRPPNFEAEKEFNETMAQQAPHCAVCMIFQTYHQVEFGGFNQNCGNASDLAPQKQRTKPLIPEMCFTSTGCSTDINLSTPYLEEDGTSILVSCKKCSVRVHASCYGVPPAKASEDWMCSRCSANALEEDCCLCSLRGGALQRANDDRWVHVSCAVAILEARFVNIAERSPVDVSKIPLPRFKLKCIFCKKRRKRTAGCCVQCSHGRCPTAFHVSCAQAAGVMMQPDDWPFVVFITCFRHKIPNLERAKGALQSITAGQKVISKHKNGRFYQCEVVRLTTETFYEVNFDDGSFSDNLYPEDIVSQDCLQFGPPAEGEVVQVRWTDGQVYGAKFVASHPIQMYQVEFEDGSQLVVKRDDVYTLDEELPKRVKSRLSVASDMRFNEIFTEKEVKQEKKRQRVINSRYREDYIEPALYRAIME
B3: 2A-E426K: KDM4A mutation (protein)
chain: B2 chain with V87I, E426K
B4: 2A-G278S: KDM4A mutation (protein)
chain: B2 chain with V87I, G278S
B5: 2A-R498H: KDM4A mutation (protein)
chain: B2 chain with V87I, R498H
B6: 2A-E368K: KDM4A mutation (protein)
chain: B2 chain with V87I, E368K
B7: 2A-G376V: KDM4A mutation (protein)
chain: B2 chain with V87I, G376V
B8: 2A-T289I: KDM4A mutation (protein)
chain: B2 chain with V87I, T289I
B9: 2A-E113K: KDM4A mutation (protein)
chain: B2 chain with V87I, E113K
B10: 2A-R400Q: KDM4A mutation (protein)
chain: B2 chain with V87I, R400Q
B11: 2A-V490M: KDM4A mutation (protein)
chain: B2 chain with V87I, V490M
B12: 2A-K123I: KDM4A mutation (protein)
chain: B2 chain with V87I, K123I
B13: 2A-P348L: KDM4A mutation (protein)
chain: B2 chain with V87I, P348L
B14: 2A-V919M: KDM4A mutation (protein)
chain: B2 chain with V87I, V919M
B15: 2A-G225C: KDM4A mutation (protein)
chain: B2 chain with V87I, G225C
B16: 2A-P326T: KDM4A mutation (protein)
chain: B2 chain with V87I, P326T
B17: 2A-A236V: KDM4A mutation (protein)
chain: B2 chain with V87I, A236V
B18: 2A-V319M: KDM4A mutation (protein)
chain: B2 chain with V87I, V319M
B19: 2A-R218W: KDM4A mutation (protein)
chain: B2 chain with V87I, R218W
B20: 2A-D524V: KDM4A mutation (protein)
chain: B2 chain with V87I, D524V
B21: 2A-R239H: KDM4A mutation (protein)
chain: B2 chain with V87I, R239H

Tested on: H3K36me3
Test: H3K36 demethylase activity of KDM4A variants in transfected cells (immunofluorescence)
Format: cell-based
Set-up: key: + indicates active; − indicates inactive; +/− indicates partial acitivty
Settings: KDM4A mutations
Protocol: The indicated NHF-tagged KDM4A deletion constructs were transfected into RPE cells grown on coverslips in 10 cm dishes using X-tremeGENE 9™ DNA transfection reagent (Roche). H3K36me3 and subcellular localization were assayed by examining transfected cells (positive for HA staining; HA.11 Covance) following fixation in 3.7% PFA in PBS (Whetstine et al., 2006).
All immunofluorescence experiments were performed as in (Black et al., 2013). For the localization experiment a minimum of 50 cells were blinded and scored. For the catalytic activity, cells overexpressing a high level of KDM4A WT or SNP-A482 were analyzed in a non quantitative manner.

H3k36 Demethylase Activity, −:
B4
B8
B19

H3k36 Demethylase Activity, +/−:
B15
B21

H3k36 Demethylase Activity, +:
B1
B2
B3
B5
B6
B7
B9
B10
B11
B12
B13
B14
B16
B17
B18
B20

Tested on: H3K9me3
Test: H3K9 demethylase activity of KDM4 variants in transfected cells
Format: cell-based
Set-up: key: + indicates active; − indicates inactive; +/− indicates partial acitivty
Settings: KDM4A mutations

H3k9 Demethylase Activity, +/−:
B8
B9
B21

H3k9 Demethylase Activity, +:
B1
B2
B3
B5
B6
B7
B10
B11
B13
B15
B16
B17
B18
B19
B20

H3k9 Demethylase Activity, −:
B4
